Measured values published in the supplement of paper PMC9112550, “Optimization of the antimicrobial peptide Bac7 by deep mutational scanning” (BMC Biology, 2022).

Test system: Escherichia coli TOP10
Test: shrunken log2 fold change of peptide-encoding DNA abundance (4.5 h post-induction vs induction); higher = less antimicrobial activity (less host growth inhibition)
Conditions: time post-induction: 4.5 h; library: site-saturation at positions 5, 18, 19, 20
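Also: peptides expressed intracellularly from a pBAD plasmid library in pooled LB shake-flask culture, induced with 0.3% L-arabinose, DNA abundance read by NGS, three biological replicates, DESeq2 with apeglm shrinkage.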

| Sequence | shrunken log2 fold change |
| --- | --- |
| RRIRFRPPRLPRPRPRPLRFPRP | 0.186 |
| RRIRFRPPRLPRPRPRPLRNPRP | 0.514 |
| RRIRFRPPRLPRPRPRPLRPPRP | 0.932 |
| RRIRFRPPRLPRPRPRPLRTPRP | 0.703 |
| RRIRFRPPRLPRPRPRPLRVPRP | -0.108 |
| RRIRFRPPRLPRPRPRPLTCPRP | -0.182 |
| RRIRFRPPRLPRPRPRPLVLPRP | -0.251 |
| RRIRFRPPRLPRPRPRPLWNPRP | -0.89 |
| RRIRFRPPRLPRPRPRPLYSPRP | -0.211 |
| RRIRFRPPRLPRPRPRPLYWPRP | -0.319 |
| RRIRFRPPRLPRPRPRPMCGPRP | -0.164 |
| RRIRFRPPRLPRPRPRPMCNPRP | -0.24 |
| RRIRFRPPRLPRPRPRPMDGPRP | -0.0177 |
| RRIRFRPPRLPRPRPRPMDWPRP | 0.314 |
| RRIRFRPPRLPRPRPRPMENPRP | -0.0803 |
| RRIRFRPPRLPRPRPRPMFKPRP | -0.581 |
| RRIRFRPPRLPRPRPRPMGMPRP | -0.0492 |
| RRIRFRPPRLPRPRPRPMKHPRP | -0.149 |
| RRIRFRPPRLPRPRPRPMKKPRP | -0.0398 |
| RRIRFRPPRLPRPRPRPMLRPRP | 0.0268 |
| RRIRFRPPRLPRPRPRPMMFPRP | 0.126 |
| RRIRFRPPRLPRPRPRPMNAPRP | -0.054 |
| RRIRFRPPRLPRPRPRPMNMPRP | -0.546 |
| RRIRFRPPRLPRPRPRPMNPPRP | -0.0531 |
| RRIRFRPPRLPRPRPRPMPCPRP | -0.557 |

| Sequence | shrunken log2 fold change |
| --- | --- |
| RRIRFRPPRLPRPRPRPMPEPRP | -0.0117 |
| RRIRFRPPRLPRPRPRPMPGPRP | -0.0263 |
| RRIRFRPPRLPRPRPRPMPIPRP | 0.0193 |
| RRIRFRPPRLPRPRPRPMQRPRP | 0.226 |
| RRIRFRPPRLPRPRPRPMTPPRP | -0.202 |
| RRIRFRPPRLPRPRPRPMWAPRP | 0.0936 |
| RRIRFRPPRLPRPRPRPMWHPRP | 0.0814 |
| RRIRFRPPRLPRPRPRPMWIPRP | -0.106 |
| RRIRFRPPRLPRPRPRPMWQPRP | -0.00366 |
| RRIRFRPPRLPRPRPRPNAMPRP | -0.191 |
| RRIRFRPPRLPRPRPRPNARPRP | 0.241 |
| RRIRFRPPRLPRPRPRPNASPRP | -0.304 |
| RRIRFRPPRLPRPRPRPNDFPRP | -0.228 |
| RRIRFRPPRLPRPRPRPNDQPRP | -0.0705 |
| RRIRFRPPRLPRPRPRPNFAPRP | -0.125 |
| RRIRFRPPRLPRPRPRPNFVPRP | -0.269 |
| RRIRFRPPRLPRPRPRPNFWPRP | 0.15 |
| RRIRFRPPRLPRPRPRPNGIPRP | -0.286 |
| RRIRFRPPRLPRPRPRPNGQPRP | -0.0712 |
| RRIRFRPPRLPRPRPRPNKIPRP | -0.538 |
| RRIRFRPPRLPRPRPRPNKSPRP | -0.67 |
| RRIRFRPPRLPRPRPRPNMFPRP | -0.259 |
| RRIRFRPPRLPRPRPRPNMVPRP | -0.124 |
| RRIRFRPPRLPRPRPRPNNWPRP | -0.369 |
| RRIRFRPPRLPRPRPRPNNYPRP | -0.539 |

| Sequence | shrunken log2 fold change |
| --- | --- |
| RRIRFRPPRLPRPRPRPNPRPRP | 0.427 |
| RRIRFRPPRLPRPRPRPNPYPRP | -0.238 |
| RRIRFRPPRLPRPRPRPNQAPRP | 0.138 |
| RRIRFRPPRLPRPRPRPNQIPRP | -0.23 |
| RRIRFRPPRLPRPRPRPNQKPRP | -0.159 |
| RRIRFRPPRLPRPRPRPNRQPRP | -0.564 |
| RRIRFRPPRLPRPRPRPNTVPRP | -0.363 |
| RRIRFRPPRLPRPRPRPNVCPRP | -0.0089 |
| RRIRFRPPRLPRPRPRPNVGPRP | -0.0278 |
| RRIRFRPPRLPRPRPRPNWCPRP | -0.107 |
| RRIRFRPPRLPRPRPRPNWTPRP | -0.00237 |
| RRIRFRPPRLPRPRPRPNWYPRP | -0.542 |
| RRIRFRPPRLPRPRPRPNYIPRP | -0.587 |
| RRIRFRPPRLPRPRPRPNYVPRP | -0.492 |
| RRIRFRPPRLPRPRPRPPCLPRP | -0.0576 |
| RRIRFRPPRLPRPRPRPPCSPRP | 0.0952 |
| RRIRFRPPRLPRPRPRPPDDPRP | 0.371 |
| RRIRFRPPRLPRPRPRPPDEPRP | 0.684 |
| RRIRFRPPRLPRPRPRPPDHPRP | 0.28 |
| RRIRFRPPRLPRPRPRPPEQPRP | -0.0209 |
| RRIRFRPPRLPRPRPRPPFAPRP | 0.423 |
| RRIRFRPPRLPRPRPRPPFRPRP | 1.84 |
| RRIRFRPPRLPRPRPRPPGGPRP | 0.782 |
| RRIRFRPPRLPRPRPRPPGQPRP | 1 |
| RRIRFRPPRLPRPRPRPPHYPRP | -0.124 |

| Sequence | shrunken log2 fold change |
| --- | --- |
| RRIRFRPPRLPRPRPRPPKDPRP | 0.248 |
| RRIRFRPPRLPRPRPRPPKFPRP | 0.0968 |
| RRIRFRPPRLPRPRPRPPLAPRP | 0.628 |
| RRIRFRPPRLPRPRPRPPLNPRP | 0.0971 |
| RRIRFRPPRLPRPRPRPPMHPRP | 0.162 |
| RRIRFRPPRLPRPRPRPPMMPRP | -0.0466 |
| RRIRFRPPRLPRPRPRPPNQPRP | 0.23 |
| RRIRFRPPRLPRPRPRPPNRPRP | 0.266 |
| RRIRFRPPRLPRPRPRPPPEPRP | 1.28 |
| RRIRFRPPRLPRPRPRPPPSPRP | 1.35 |
| RRIRFRPPRLPRPRPRPPQYPRP | 0.0298 |
| RRIRFRPPRLPRPRPRPPRYPRP | 0.246 |
| RRIRFRPPRLPRPRPRPPSAPRP | 0.703 |
| RRIRFRPPRLPRPRPRPPTGPRP | 0.217 |
| RRIRFRPPRLPRPRPRPPTYPRP | -0.0496 |
| RRIRFRPPRLPRPRPRPPVDPRP | 0.41 |
| RRIRFRPPRLPRPRPRPPVFPRP | 0.138 |
| RRIRFRPPRLPRPRPRPPVWPRP | 0.622 |
| RRIRFRPPRLPRPRPRPPWFPRP | 0.033 |
| RRIRFRPPRLPRPRPRPPWQPRP | 0.361 |
| RRIRFRPPRLPRPRPRPPYGPRP | -0.0784 |
| RRIRFRPPRLPRPRPRPPYNPRP | -0.323 |
| RRIRFRPPRLPRPRPRPQCCPRP | -0.067 |
| RRIRFRPPRLPRPRPRPQDFPRP | -0.143 |
| RRIRFRPPRLPRPRPRPQEFPRP | 0.0412 |

| Sequence | shrunken log2 fold change |
| --- | --- |
| RRIRFRPPRLPRPRPRPQFRPRP | -0.174 |
| RRIRFRPPRLPRPRPRPQGSPRP | -0.0076 |
| RRIRFRPPRLPRPRPRPQHAPRP | -0.202 |
| RRIRFRPPRLPRPRPRPQHVPRP | -0.315 |
| RRIRFRPPRLPRPRPRPQICPRP | -0.135 |
| RRIRFRPPRLPRPRPRPQIMPRP | -0.736 |
| RRIRFRPPRLPRPRPRPQIPPRP | -0.475 |
| RRIRFRPPRLPRPRPRPQLFPRP | 0.104 |
| RRIRFRPPRLPRPRPRPQMCPRP | -0.119 |
| RRIRFRPPRLPRPRPRPQMMPRP | -0.313 |
| RRIRFRPPRLPRPRPRPQNCPRP | -0.195 |
| RRIRFRPPRLPRPRPRPQNEPRP | -0.603 |
| RRIRFRPPRLPRPRPRPQNYPRP | -0.502 |
| RRIRFRPPRLPRPRPRPQQPPRP | -0.00359 |
| RRIRFRPPRLPRPRPRPQSKPRP | 0.379 |
| RRIRFRPPRLPRPRPRPQSRPRP | 0.0257 |
| RRIRFRPPRLPRPRPRPQTFPRP | -0.127 |
| RRIRFRPPRLPRPRPRPQTSPRP | -0.449 |
| RRIRFRPPRLPRPRPRPQVKPRP | -0.279 |
| RRIRFRPPRLPRPRPRPQVSPRP | -0.298 |
| RRIRFRPPRLPRPRPRPQWIPRP | -0.148 |
| RRIRFRPPRLPRPRPRPQWKPRP | -0.0239 |
| RRIRFRPPRLPRPRPRPQYAPRP | -0.862 |
| RRIRFRPPRLPRPRPRPQYIPRP | -0.0295 |
| RRIRFRPPRLPRPRPRPRAQPRP | 0.191 |

| Sequence | shrunken log2 fold change |
| --- | --- |
| RRIRFRPPRLPRPRPRPRCPPRP | 0.262 |
| RRIRFRPPRLPRPRPRPRCYPRP | -0.473 |
| RRIRFRPPRLPRPRPRPREYPRP | -0.415 |
| RRIRFRPPRLPRPRPRPRFKPRP | -0.281 |
| RRIRFRPPRLPRPRPRPRFTPRP | 0.0956 |
| RRIRFRPPRLPRPRPRPRFVPRP | 0.181 |
| RRIRFRPPRLPRPRPRPRGDPRP | 0.477 |
| RRIRFRPPRLPRPRPRPRHYPRP | -0.477 |
| RRIRFRPPRLPRPRPRPRIRPRP | -0.075 |
| RRIRFRPPRLPRPRPRPRITPRP | -0.657 |
| RRIRFRPPRLPRPRPRPRIVPRP | -0.267 |
| RRIRFRPPRLPRPRPRPRKFPRP | 0.171 |
| RRIRFRPPRLPRPRPRPRLHPRP | 0.0811 |
| RRIRFRPPRLPRPRPRPRMEPRP | -0.00899 |
| RRIRFRPPRLPRPRPRPRMPPRP | 0.145 |
| RRIRFRPPRLPRPRPRPRMYPRP | -0.151 |
| RRIRFRPPRLPRPRPRPRNSPRP | 0.168 |
| RRIRFRPPRLPRPRPRPRNYPRP | -0.236 |
| RRIRFRPPRLPRPRPRPRPDPRP | 0.282 |
| RRIRFRPPRLPRPRPRPRPNPRP | 0.4 |
| RRIRFRPPRLPRPRPRPRQKPRP | 0.363 |
| RRIRFRPPRLPRPRPRPRQSPRP | 0.443 |
| RRIRFRPPRLPRPRPRPRSCPRP | 0.155 |
| RRIRFRPPRLPRPRPRPRTAPRP | 0.162 |
| RRIRFRPPRLPRPRPRPRTLPRP | 0.165 |
